The data set relates to GST-TfmR (Xanthomonas citri subsp. citri 306). The experiment in a line: EMSA. As to conditions: LightShift Chemiluminescent EMSA Kit per manufacturer; 1-2 ng biotin DNA, 20 pmol GST-TfmR, 15 min (Fig. 6); buffer, salt, pH and temperature not stated. On the technique in general: In EMSA bound probe runs differently from free probe, usually more slowly.

In general, Kd refers to the free concentration of one partner at which half of the binding sites on the other are occupied at equilibrium, for simple one-to-one binding.

Consider pmhpC/fadE promoter, for which the Kd came out at 87 nM.

Source of the values: paper PMC6637906.
